# Measurements reported in patent publication US11560566B2, “Aptazyme-embedded guide RNAs for use with CRISPR-Cas9 in genome editing and transcriptional activation” (President and Fellows of Harvard College, priority 2017, dated 2023).
# Tests used:
# FANCF site = experiment: Theophylline-dependent base editing (BE3), FANCF site; format: cell-based, human; conditions: ligand concentration 4 mM
# Description: Cells were harvested 3 days after transfection.
# [1] = tested on: GFP gene (modified promoter) in HEK293T cells; experiment: Transcriptional activation of GFP reporter with dCas9-VPR in HEK293T cells; format: cell-based, human
# Description: In addition to genome editing, transcriptional regulation is another widely used application of CRISPR-Cas9^4. To further explore the utility of agRNAs, we sought to develop an agRNA that responds to a different small-molecule ligand and activates the expression of a guide RNA-specified target gene, rather than editing a target gene through DNA cleavage. A previously reported guanine-aptazyme^24 that contains a naturally occurring guanine aptamer^25 was incorporated into the guide RNA and the resulting guanine-agRNA was tested for its ability to activate transcription of a GFP gene in HEK293T cells (FIG. 3c). […] In the presence of an active guide RNA, dCas9-VPR initiates transcription of GFP, ultimately resulting in cell fluorescence.
# (§1) To each well in a 48-well plate, 200 ng of dCas9-VPR plasmid, 0.5 ng of guide RNA plasmid and 60 ng of reporter plasmid were transfected using 1.2 μL Lipofectamine 2000. […] Cells were harvested 20 h after transfection.
# [2] = tested on: target dsDNA (full GFP gene); experiment: In vitro DNA cleavage assay (Cas9 + guide RNA); format: biochemical; conditions: 10 nM target DNA, 100 nM guide RNA, 100 nM Cas9, 37° C.; for target DNA cleavage followed by gel electrophoresis: 1 h for sgRNA variants, 5 h for crRNA and tracrRNA variants
# Protocol: The blocker-linked guide RNAs were prepared by in vitro transcription and incubated in vitro with Cas9 protein and a target dsDNA. Target DNA cleavage was followed by gel electrophoresis (FIG. 1b).
# SpCas9 protein was purified as previously described^1,35. Guide RNAs were transcribed using a T7 High Yield RNA Synthesis Kit (NEB) following the manufacturer's protocol, and purified with the E.Z.N.A. PF miRNA Isolation Kit (Omega Bio-tek, Inc.). The target dsDNA (full GFP gene) was amplified by polymerase chain reaction and purified using QlAquick PCR Purification Kit (QIAGEN). For the cleavage reaction, 10 nM of the target DNA was incubated with 100 nM of the guide RNA in the presence of 100 nM Cas9 protein in a Cas9 DNA cleavage buffer (150 mM KCl, 10 mM MgCl2, 0.5 mM DTT, 0.1 mM EDTA, 20 mM HEPES pH 7.5). In vitro editing reactions were incubated at 37° C. for 1 h for sgRNA and its variants and the reactions for crRNA and tracrRNA and their variants were incubated at 37° C. for 5 h before being stopped with 6×DNA loading buffer and analyzed by non-denaturing agarose gel electrophoresis.
# [3] = tested on: endogenous GFP locus in HEK293-GFP cells
# Description: To compare the activities of the guide RNAs with the blocking region either present or removed, a non-cleaving “dead” variant of HHR-bsgRNA (dHHR-bsgRNA) containing a single A to G point mutation in the catalytic loop of the hammerhead ribozyme was produced. To optimize the restoration of guide RNA activity by self-cleavage of the hammerhead ribozyme, the length of the blocking sequence was varied. Three sets of HHR-bsgRNAs and dHHR-bsgRNAs with blocking sequences of 10 to 17 nucleotides were constructed. The genome editing activities of these sgRNA variants in the presence of Cas9 in human embryonic kidney cells harboring genomic GFP genes (HEK293-GFP) were assayed by targeting the endogenous GFP locus (FIG. 2a).
# HEK293 cells with integrated GFP genes (GenTarget Inc.) were cultured in 48-well plates (40,000 cells seeded per well) in Dulbecco's Modified Eagle's Media plus GlutaMAX (DMEM, Life Technologies) with 10% FBS. Plasmids were transfected ˜20 h after plating when cells reached ˜70% confluence. To edit the GFP genes in HEK293 cells, 100 ng of Cas9 plasmid and 2 ng of guide RNA plasmid were transfected in each well using 1.2 μL Lipofectamine 2000 (Life Technologies) following the manufacturer's protocol. To distinguish transfected cells from non-transfected cells, 2 ng of an iRFP expression plasmid was co-transfected. A stock solution of 100 mM theophylline was made in 60 mM NaOH and was supplied to cells 6 h after plasmid transfection at designed concentrations. The cells were incubated for additional 7 days before analysis and media was changed at day 3, 5 and 6. Fresh theophylline was supplied immediately at the same concentration as in the initial condition each time the media was changed. GFP fluorescence was quantified by flow cytometry and the transfected live population was gated by iRFP signal.
# [4] = tested on: RFP reporter in HEK293T cells; experiment: Transcriptional activation of RFP reporter with dCas9-VPR in HEK293T cells; format: cell-based, human; conditions: different spacer sequence
# Protocol: To further generalize this strategy, we tested the guanine-agRNA with three bulges for RFP activation in HEK293T cells with a different spacer sequence that is unrelated to the spacer used to target GFP.
# as §1
molecule,measurement,setting,value
Cn1c(=O)[nH]c(=O)c2[nH]cnc21 [3-methylxanthine],"response of theophylline-agRNA-mediated base editing to ligand, fold less strongly than to theophylline",FANCF site,2 fold
"Nc1nc2nc[nH]c2c(=O)[nH]1 [guanine, reference compound]",effect of guanine on GFP fluorescence,"[1]; guanine in the medium from 0 to 200 μM, cells with (d) guanine-agRNA",slightly reduced GFP fluorescence
"blocked crRNA: crRNA with 42-nucleotide linker and 10-nucleotide blocking sequence appended to the 3′ end (nucleic acid, unmodified RNA) guide: GGGCACGGGCAGCUUGCCGGGUUUUAGAGCUAUGCUGUUUUGGAUGGCAACCACGUCGCGUCCUGUAGUAGUAUGAUAGCUCUAA",target DNA cleavage followed by gel electrophoresis,[2],partial cleavage of the target DNA
"post-cleavage sgRNA: processed HHR-bsgRNA without the blocking sequence, 11 extra nucleotides at the 5′ end (nucleic acid, chemistry not given here) guide: GCUGGAUUCCACGGGCACGGGCAGCUUGCCGGGUUUUAGAGCUAGAAAUAGCAAGUUAAAAUAAGGCUAGUCCGUUAUCAACUUGAAAAAGUGGCACCGAGUCGGUGCUUUUUUU",activity compared to the unmodified guide RNA,"[3]; HEK293-GFP cells, Cas9, sgRNA with 11 extra nucleotides at the 5′ end",maintained most of its activity
"blocked tracrRNA: tracrRNA with 42-nucleotide linker and 10-nucleotide blocking sequence appended to the 5′ end (nucleic acid, unmodified RNA) GGAUUUUAACUUUAGUAGUAGUAGGCAACCACGUCGCGUCCUAGUAGGCAUAGCAAGUUAAAAUAAGGCUAGUCCGUUAUCAACUUGAAAAAGUGGCACCGAGUCGGUGCUUUUUUU",target DNA cleavage followed by gel electrophoresis,[2],partial cleavage of the target DNA
guanine-agRNA with three bulges: guanine-agRNA with bulged blocker and a different spacer for RFP activation (nucleic acid) guide: ACUGCGGGAUGGAGGAGACGGUACAUCCAGCUGAUGAGUCCCAAAUAGGACGAAAUACUAUAAUCGCGUGGAUAUGGCACGCAAGUUUCUACCGGGCACCGUAAAUGUCCGACUAGUGUCCUGGAUUCCACGUCCCCUCCACCCCACAGUGGUUUUAGAGCUAGAAAUAGCAAGUUAAAAUAAGGCUAGUCCGUUAUCAACUUGAAAAAGUGGCACCGAGUCGGUGCUUUUUUU,guanine-dependent RFP activation ratio,[4],~3 fold
guanine-agRNA: guanine-aptazyme-embedded guide RNA for GFP activation (nucleic acid) guide: GCAAGCUGCCCGUGCCCGGUACAUCCAGCUGAUGAGUCCCAAAUAGGACGAAAUACUAUAAUCGCGUGGAUAUGGCACGCAAGUUUCUACCGGGCACCGUAAAUGUCCGACUAGUGUCCUGGAUUCCACGGGCACGGGCAGCUUGCCGGGUUUUAGAGCUAGAAAUAGCAAGUUAAAAUAAGGCUAGUCCGUUAUCAACUUGAAAAAGUGGCACCGAGUCGGUGCUUUUUUU,off-state activity (GFP fluorescence),"[1]; absence of guanine, compared to control cells lacking any guide RNA",elevated GFP fluorescence
same,activation of GFP fluorescence,[1]; guanine added to media at 50 μM,5 fold
(d) guanine-agRNA: non-splicing mutant of guanine-agRNA (nucleic acid) GCAAGCUGCCCGUGCCCGGUACAUCCAGCUGAUGAGUCCCAAAUAGGACGAGAUACUAUAAUCGCGUGGAUAUGGCACGCAAGUUUCUACCGGGCACCGUAAAUGUCCGACUAGUGUCCUGGAUUCCACGGGCACGGGCAGCUUGCCGGGUUUUAGAGCUAGAAAUAGCAAGUUAAAAUAAGGCUAGUCCGUUAUCAACUUGAAAAAGUGGCACCGAGUCGGUGCUUUUUUU,GFP activation by guanine,"[1]; guanine 50 μM (dHHR-bsgRNA) or different concentrations ((d) guanine-agRNA), dCas9-VPR",only a low level of GFP expression that could no longer be activated by guanine
"canonical sgRNA: canonical Streptococcus pyogenes single guide RNA targeting GFP, positive control (nucleic acid, chemistry not given here, canonical Streptococcus pyogenes single guide RNA targeting GFP, positive control) guide: GGGCACGGGCAGCUUGCCGGGUUUUAGAGCUAGAAAUAGCAAGUUAAAAUAAGGCUAGUCCGUUAUCAACUUGAAAAAGUGGCACCGAGUCGGUGCUUUUUUU",cleavage efficiency,[2]; 1 h,~100%
same,activity relative to that of the activated agRNA,"[3]; loss beyond the off-state, 62% vs 48%",1.3 fold
same,loss beyond the off-state,[3]; wild-type Cas9,62%
same,GFP loss,"[3]; wild-type Cas9, canonical guide, positive control",72%
5′ spacer-blocked sgRNA: sgRNA with 42-nucleotide linker and 6-nucleotide blocking sequence complementary to the spacer at the 5′ end (nucleic acid) guide: GGUGCCCGUAGUAGUAGUAGCAACCACGUCGCGUCCGUAGUAGUAGUAGGGCACGGGCAGCUUGCCGGGUUUUAGAGCUAGAAAUAGCAAGUUAAAAUAAGGCUAGUCCGUUAUCAACUUGAAAAAGUGGCACCGAGUCGGUGCUUUUUUU,target DNA cleavage followed by gel electrophoresis,[2],no cleavage product could be detected
